First the molecules themselves.
T1: SUDV VLP (Sudan virus (SUDV), UniProt Q66814 33-676)
T1 sequence: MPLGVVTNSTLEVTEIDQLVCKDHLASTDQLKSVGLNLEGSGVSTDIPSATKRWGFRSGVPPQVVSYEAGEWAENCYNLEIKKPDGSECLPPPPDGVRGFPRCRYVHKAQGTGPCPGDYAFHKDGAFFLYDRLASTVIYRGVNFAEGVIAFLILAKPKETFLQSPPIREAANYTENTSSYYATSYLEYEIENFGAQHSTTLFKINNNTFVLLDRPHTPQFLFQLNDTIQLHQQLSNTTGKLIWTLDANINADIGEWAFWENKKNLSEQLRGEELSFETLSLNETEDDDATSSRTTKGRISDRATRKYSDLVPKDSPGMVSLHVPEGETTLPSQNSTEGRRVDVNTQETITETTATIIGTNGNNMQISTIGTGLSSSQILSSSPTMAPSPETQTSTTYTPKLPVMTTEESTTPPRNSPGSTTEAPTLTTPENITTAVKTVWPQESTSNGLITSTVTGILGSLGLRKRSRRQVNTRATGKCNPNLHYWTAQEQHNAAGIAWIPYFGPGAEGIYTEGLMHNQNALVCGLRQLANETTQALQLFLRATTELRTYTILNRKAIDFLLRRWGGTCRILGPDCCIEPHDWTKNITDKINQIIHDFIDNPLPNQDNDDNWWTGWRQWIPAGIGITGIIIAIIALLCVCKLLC

T2: EBOV VLP (Ebola virus (EBOV), UniProt Q05320 33-676)
T2 sequence: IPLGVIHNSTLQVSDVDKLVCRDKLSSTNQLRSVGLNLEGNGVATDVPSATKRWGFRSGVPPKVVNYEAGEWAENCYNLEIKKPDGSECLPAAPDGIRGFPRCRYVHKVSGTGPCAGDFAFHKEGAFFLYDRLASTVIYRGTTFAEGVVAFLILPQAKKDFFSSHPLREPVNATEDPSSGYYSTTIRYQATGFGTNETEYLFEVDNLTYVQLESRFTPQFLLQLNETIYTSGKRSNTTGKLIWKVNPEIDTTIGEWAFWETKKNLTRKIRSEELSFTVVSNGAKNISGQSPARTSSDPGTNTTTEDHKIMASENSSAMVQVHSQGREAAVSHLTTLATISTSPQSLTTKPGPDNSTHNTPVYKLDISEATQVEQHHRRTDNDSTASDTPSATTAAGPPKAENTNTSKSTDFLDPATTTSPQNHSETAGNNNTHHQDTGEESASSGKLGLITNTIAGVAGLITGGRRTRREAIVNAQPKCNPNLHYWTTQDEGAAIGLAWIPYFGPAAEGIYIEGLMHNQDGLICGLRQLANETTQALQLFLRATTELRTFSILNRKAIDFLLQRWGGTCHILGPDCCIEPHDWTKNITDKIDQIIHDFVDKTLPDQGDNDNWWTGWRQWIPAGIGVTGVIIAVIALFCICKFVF

B1: FVM04 (antibody, V domains shown)
VH: EVQLVQSGGGLVQPGGSMRLSCEASGLSLSDYFMHWVRQAQGKGLEWIGLIQTKAFTYKTEYPAAVKGRFTISRDDSKNTLYLQMSSLKPEDTALYYCIAVTPDFYYWGQGVLVTVSS
VL: DVVMTQSPSFLSASVGDRVTITCRASQDITINLNWFQHKPGKAPKRLIYVASRLERGVPSRFSGSGSGTEFTLTISSLQPEDFATYYCQQYNNYPLTFGPGTKLDIKR
B2: FVM29 (antibody, V domains shown)
VH: EVQLVQSGAEVKRPGESLKISCQTSGNSFTNNWISWVRQMPGKGLEWMGAIDPSDSETRYSPSFQGQVTISADKSINTAYLQWSSLKASDTATYYCVKGSETWGQGVLVTVSS
VL: QPVLTQPASLSASPGASASLTCTFSGGINVAGYNILWYQQKAGSPPRYLLRYKSDSTKDQGSGVPSRFSGSKDASANTGILRISGLQSEDEADYYCAIGHSSGWIFGGGTRLTVL
B3: FVM07 (antibody, V domains shown)
VH: EVQLVQSGAEVKRPGESLTISCKTSGYSFTDSWIGWVRQMPGKGLEWMGSIYPGDSDTKYNPSFQGHVTISADKSISTTYLQWSSLKASDTATYYCVAREAYWGQGVLVTVSS
VL: B2 VL with N34H, L36F, A42P, T57D, D59G, W104V, I105L
B4: FVM12 (antibody, V domains shown)
VH: EVQLVQSGAEVKRPGESLTISCKTSEYSFTGSWISWVRQMPGKGLEWMGSIYPGDSDTRYSPSFQGQVTISADKSVTTTYLKWSSLKASDTATYYCVKGSETWGQGVLVTVSS
VL: B2 VL with P14L, A42P, Y48F, T57D, K58N, D59V, R67H, A76T, I105V
B5: FVM10 (antibody, V domains shown)
VH: QVQLVQSGAEVKRPGESLKISCQTSGYSFTDSWVAWVRQMPGKGLEWLGSIYPGDSETKYNPSFQGHVTISADKSISTAYLQWSSLKASDTATYYCAKGSETWGQGLRVTVSS
VL: B2 VL with P2A, V3G, A42P, T57D
B6: FVM08 (antibody, V domains shown)
VH: EVQLVQSGAEVKRPGESLTISCKTSGYSFTDSWVAWVRQMPGKGLEWMGSIYPGDSDTRYNPSFEGQVTISADKSISTTYLQWSSLRASDTATYYCVKGADDWGQGVLVTVSS
VL: B2 VL
B7: FVM39 (antibody, V domains shown)
VH: B4 VH with T19R, E26G, G31D, M48L, D57E, R59K, S61N, Q67H
VL: B2 VL
B8: FVM14 (antibody, V domains shown)
VH: B5 VH with Q1E, D31S, S32T, V34I, A35T, A79T, S84N, A97V, L107V, R108L
VL: B2 VL with P2A, L4V
B9: FVM06 (antibody, V domains shown)
VH: B2 VH with K19T, Q23K, N27Y, N32Y, K43E, E57D, I70M, N77T
VL: B2 VL
B10: FVM35 (antibody, V domains shown)
VH: B4 VH with E26G, G31S, S32Y, S35T, M48L, D57E, R59K, S61N, Q67H
VL: B2 VL
B11: FVM26 (antibody, V domains shown)
VH: QVQLVQSGAEVKRPGESLRISCKTSGYTFTDYWIAWVRQMPGKGLEWMGSIYPGDSETKYNPSFQGHVTISADKSVTTTYLKWSRLKASDTATYYCVKGSETWGQGVLVTVSS
VL: B2 VL
B12: FVM27 (antibody, V domains shown)
VH: B2 VH with Q23K, N27Y, T30A, N31S, N32S, E57A, N77S
VL: B2 VL with T113I
B13: FVM22 (antibody, V domains shown)
VH: B5 VH with Q1E, K19T, Q23K, L107V, R108L
VL: B2 VL with Q1S, P2S, V3G
B14: FVM15 (antibody, V domains shown)
VH: B11 VH
VL: B2 VL
B15: FVM33 (antibody, V domains shown)
VH: B4 VH with E1Q, T19K, E26R, G31S, S35G, M48L, S61N, Q67H
VL: B2 VL
B16: FVM34 (antibody, V domains shown)
VH: B4 VH with Q6E, E26G, G31D, I34V, D57E, R59K, S61N, Q67H
VL: B2 VL with N34Y, L36H, A42P, T57D, D59H, I105V
B17: FVM31 (antibody, V domains shown)
VH: B4 VH with E1Q, E26G, G31D, I34V, S35A, M48L, T58A, S61N, Q67H, K74T
VL: B2 VL with Q1K, V3M
B18: FVM41 (antibody, V domains shown)
VH: B11 VH with Q1E, R19K, T28S, Y32T, A35S, R85S
VL: B2 VL with Q1E, P2T, L4V, W104V, I105L
B19: FVM38 (antibody, V domains shown)
VH: B11 VH with R19T, T28S, Y32S, A35G, G49A, G54D, R85S
VL: B2 VL
B20: FVM11 (antibody, V domains shown)
VH: B11 VH with Q1E, R19T, T28S, Y32S, I34V, M48L, R85S
VL: B2 VL with Q1N, P2F, V3M
B21: FVM16 (antibody, V domains shown)
VH: B11 VH with Q1E, R19K, K23R, T28S, D31S, Y32T, A35N, M48L, R85S
VL: B2 VL with Q1K, V3M, I105V
B22: FVM40 (antibody, V domains shown)
VH: B4 VH with E26G, G31D, D57E, R59K, S61N, Q67H
VL: B2 VL with V3M
B23: FVM37 (antibody, V domains shown)
VH: B11 VH with R19K, T28R, D31S, Y32S, A35S, M48L, R85S
VL: B2 VL with Q1S, P2S, V3E
B24: FVM05 (antibody, V domains shown)
VH: QVQLQESGPGLVKPSETLSLTCAVSGFSISSGYGWSWIRQPPGKGLEWIGYIGGSSGSTSYNPSLKSRVTLSADTSKNQFSLKLSSVTAADTAVYYCARRYSSYRSWFDVWGPGVLVTVSS
VL: SSGLTQPRSVSVSPGQTARITCGGDNIGSKSVHWYQQKPPQAPVLVIYADSERPSGIPERFSGSNSGNTATLTISGVEAGDEADYYCQVWDSSSDHWVFGGGTRLTVL

Here are results for 24 molecules from patent publication US20170334973A1 (INTEGRATED BIOTHERAPEUTICS, published 2017).

Changes are numbered by the printed parent chain.

One assay has as its target T1, SUDV VLP. The experiment in a line: ELISA.
A word on the EC50: it is the concentration that produces a half-maximal response. The low end stands for greater potency, the high end for weaker potency. B1: a half-maximal effect (EC50) was put at 0.193 nM.

In turn, B2 had a half-maximal effective concentration (EC50) of 24.1 nM. For the molecule B3, the EC50 was 18.2 nM. In the case of B4, a half-maximal response (EC50) required 0.673 nM. Turning to B5, the concentration giving a half-maximal response (EC50) worked out at 0.687 nM. The molecule B6 registered a concentration giving a half-maximal response (EC50) of 0.135 nM. On to B7, for which the EC50 was 0.047 nM.

With B8, the half-maximal effective concentration (EC50) stood at 0.157 nM. On the same count and under the same terms, with B9 the figure was 0.213 nM.

As for B10, the EC50 was 0.14 nM. Consider B11, for which the EC50 came to 0.153 nM.

The molecule B12 came in with a 50% effective concentration (EC50) of 0.12 nM.

Consider B13, for which the EC50 is 0.173 nM. In the case of B14, the EC50 is 0.129 nM. Same read-out and setting: in the case of B15 it was 0.08 nM. Molecule B16 came in with an EC50 of 0.227 nM. B17 displayed an EC50 of 0.193 nM. Consider B18, for which the 50% effective concentration (EC50) amounted to 0.32 nM. B19 registered an EC50 of 0.147 nM.

B20 displayed an EC50 of 0.189 nM. Molecule B21 returned an EC50 of 1.43 nM.

For the molecule B22, the midpoint of the response, the EC50, lay at 0.113 nM.

As to B23, it took 0.127 nM to reach a half-maximal effect (EC50).

A further assay deals with T2, EBOV VLP. Put plainly: ELISA.
The molecule B24 showed a concentration for a half-maximal effect (EC50) of 18 nM.

With B1, the EC50 was 0.306 nM. Molecule B3 registered an EC50 of 1.71 nM. B4 registered an EC50 of 0.622 nM. B5 yielded an EC50 of 0.653 nM. In the case of B6, the EC50 came to 0.193 nM. Molecule B7 gave an EC50 of 0.08 nM. Regarding B8, the 50% effective concentration (EC50) stood at 0.78 nM. On to B9, for which the EC50 worked out at 0.215 nM. The molecule B10 displayed an EC50 of 0.233 nM. As for B11, the EC50 was 0.26 nM.

For the molecule B12, the EC50 is 0.233 nM.

Regarding B13, it took 0.253 nM to reach a half-maximal effect (EC50). For the molecule B14, the EC50 is 0.151 nM. Still for that read-out and setting: in the case of B15 it was 0.173 nM; in that of B16, 0.193 nM; in that of B17, 0.32 nM. Consider B18, for which the EC50 was determined as 0.36 nM. B19: the EC50 came out at 0.253 nM.

For the molecule B20, the EC50 is 0.219 nM. The molecule B21 gave a half-maximal effective concentration (EC50) of 0.655 nM. As to B22, the response was half-maximal at 0.173 nM (EC50).

For B23, the concentration giving a half-maximal response (EC50) came out at 0.227 nM.
